Publication PMC10397247
Blank lines part the entries; values can stand above or below the binder they belong to.

Columns and labels:
[1] = target: T1, 4H2134-bN; assay: two-hybrid library CCNG1;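 note: natural log of median RNA to DNA barcode read ratio; higher means stronger binding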
T1 chain: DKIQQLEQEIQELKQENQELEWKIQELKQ

[2] = target: T2, 4H2143-bN; assay: two-hybrid library CCNG1; details: mean of both orientations;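 note: natural log of median RNA to DNA barcode read ratio; higher means stronger binding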
T2 chain: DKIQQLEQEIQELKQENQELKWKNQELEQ

[3] = target: T3, 4H2223-bN; assay: two-hybrid library CCNG1;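 note: natural log of median RNA to DNA barcode read ratio; higher means stronger binding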
T3 chain: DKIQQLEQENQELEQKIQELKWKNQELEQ

[4] = target: T4, 4H2438-bN; assay: two-hybrid library CCNG1;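 note: natural log of median RNA to DNA barcode read ratio; higher means stronger binding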
T4 chain: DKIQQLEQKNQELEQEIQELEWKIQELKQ

[5] = target: T5, 4H2473-bN; assay: two-hybrid library CCNG1;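 note: natural log of median RNA to DNA barcode read ratio; higher means stronger binding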
T5 chain: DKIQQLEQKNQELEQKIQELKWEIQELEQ

[6] = target: T6, 4H2503-bN; assay: two-hybrid library CCNG1;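 note: natural log of median RNA to DNA barcode read ratio; higher means stronger binding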
T6 chain: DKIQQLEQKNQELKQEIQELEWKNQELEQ

[7] = target: T7, 4H2588-bN; assay: two-hybrid library CCNG1
T7 chain: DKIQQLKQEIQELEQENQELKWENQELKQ

[8] = target: T8, 4H2692-bN; assay: two-hybrid library CCNG1
T8 chain: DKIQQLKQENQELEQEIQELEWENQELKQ

[9] = target: T9, 4H2717-bN; assay: two-hybrid library CCNG1
T9 chain: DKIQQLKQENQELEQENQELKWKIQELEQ

[10] = target: T10, 4H2839-bN; assay: two-hybrid library CCNG1
T10 chain: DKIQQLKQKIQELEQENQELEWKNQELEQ

[11] = target: T11, 4H2915-bN; assay: two-hybrid library CCNG1
T11 chain: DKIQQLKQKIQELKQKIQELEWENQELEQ

[12] = target: T12, 4H3057-bN; assay: two-hybrid library CCNG1
T12 chain: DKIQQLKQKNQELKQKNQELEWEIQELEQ

[13] = target: T13, 4H319-bN; assay: two-hybrid library CCNG1
T13 chain: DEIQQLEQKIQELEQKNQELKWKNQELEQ

[14] = target: T14, 4H3277-bN; assay: two-hybrid library CCNG1
T14 chain: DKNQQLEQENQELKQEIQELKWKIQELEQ

[15] = target: T15, 4H348-bN; assay: two-hybrid library CCNG1
T15 chain: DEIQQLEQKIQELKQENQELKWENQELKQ

[16] = target: T16, 4H40-bN; assay: two-hybrid library CCNG1
T16 chain: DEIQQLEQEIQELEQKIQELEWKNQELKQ

[17] = target: T17, 4H477-bN; assay: two-hybrid library CCNG1
T17 chain: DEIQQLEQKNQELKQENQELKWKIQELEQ

[18] = target: T18, 4H492-bN; assay: two-hybrid library CCNG1
T18 chain: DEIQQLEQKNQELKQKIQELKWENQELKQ

[19] = target: T19, 4H741-bN; assay: two-hybrid library CCNG1
T19 chain: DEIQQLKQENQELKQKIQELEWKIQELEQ

[20] = target: T20, 4H491-bH; assay: two-hybrid library CCNG1
T20 chain: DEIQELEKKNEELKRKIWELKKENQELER

[21] = target: T21, P11A-bA; assay: two-hybrid library CCNG1
T21 chain: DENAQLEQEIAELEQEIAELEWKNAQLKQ

[22] = target: T22, 4H134-AA; assay: two-hybrid library CCmax
T22 chain: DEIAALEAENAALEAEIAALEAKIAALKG

[23] = target: T23, 4H1350-AA; assay: two-hybrid library CCmax; details: mean of both orientations
T23 chain: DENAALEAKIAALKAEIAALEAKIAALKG

[24] = target: T24, 4H1385-AA; assay: two-hybrid library CCmax; details: mean of both orientations
T24 chain: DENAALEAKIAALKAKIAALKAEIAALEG

[25] = target: T25, 4H1392-AA; assay: two-hybrid library CCmax; details: mean of both orientations
T25 chain: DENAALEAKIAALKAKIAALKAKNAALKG

[26] = target: T26, 4H2622-AA; assay: two-hybrid library CCmax; details: mean of both orientations
T26 chain: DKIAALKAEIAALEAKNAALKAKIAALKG

[27] = target: T27, 4H2705-AA; assay: two-hybrid library CCmax; details: mean of both orientations
T27 chain: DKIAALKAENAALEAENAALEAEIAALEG

[28] = target: T28, 4H2736-AA; assay: two-hybrid library CCmax; details: mean of both orientations
T28 chain: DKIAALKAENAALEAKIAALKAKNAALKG

[29] = target: T29, 4H2888-AA; assay: two-hybrid library CCmax; details: mean of both orientations
T29 chain: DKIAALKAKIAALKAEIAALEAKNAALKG

[30] = target: T30, 4H3049-AA; assay: two-hybrid library CCmax; details: mean of both orientations
T30 chain: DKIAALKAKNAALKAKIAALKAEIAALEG

[31] = target: T31, 4H337-AA; assay: two-hybrid library CCmax; details: mean of both orientations
T31 chain: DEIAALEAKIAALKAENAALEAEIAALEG

[32] = target: T32, 4H3587-AA; assay: two-hybrid library CCmax; details: mean of both orientations
T32 chain: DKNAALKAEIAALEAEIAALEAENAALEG

[33] = target: T33, 4H3590-AA; assay: two-hybrid library CCmax; details: mean of both orientations
T33 chain: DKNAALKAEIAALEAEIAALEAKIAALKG

[34] = target: T34, 4H3625-AA; assay: two-hybrid library CCmax; details: mean of both orientations
T34 chain: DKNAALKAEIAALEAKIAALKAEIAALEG

[35] = target: T35, 4H384-AA; assay: two-hybrid library CCmax; details: mean of both orientations
T35 chain: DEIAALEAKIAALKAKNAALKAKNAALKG

[36] = target: T36, 4H3905-AA; assay: two-hybrid library CCmax; details: mean of both orientations
T36 chain: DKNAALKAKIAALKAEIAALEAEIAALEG

[37] = target: T37, 4H4038-AA; assay: two-hybrid library CCmax; details: mean of both orientations
T37 chain: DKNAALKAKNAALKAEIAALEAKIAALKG

[38] = target: T38, 4H43-AA; assay: two-hybrid library CCmax; details: mean of both orientations
T38 chain: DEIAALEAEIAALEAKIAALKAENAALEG

[39] = target: T39, 4H451-AA; assay: two-hybrid library CCmax; details: mean of both orientations
T39 chain: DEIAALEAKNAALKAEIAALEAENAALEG

[40] = target: T40, 4H510-AA; assay: two-hybrid library CCmax; details: mean of both orientations
T40 chain: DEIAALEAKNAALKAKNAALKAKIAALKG

[41] = target: T41, 4H_APH; assay: two-hybrid library CCmax; details: mean of both orientations
T41 chain: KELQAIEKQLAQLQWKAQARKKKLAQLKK

[42] = target: T42, 4H_BCR; assay: two-hybrid library CCmax
T42 chain: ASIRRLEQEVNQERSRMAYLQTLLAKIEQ

[43] = target: 4H_GCN4; assay: two-hybrid library CCmax
4H_GCN4, sequence (chain, as listed by the source): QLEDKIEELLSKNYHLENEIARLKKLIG

[44] = target: GCN2_T; assay: two-hybrid library CCmax; details: mean of both orientations
[45] = target: T43, O11-AA; assay: two-hybrid library CCmax; details: mean of both orientations
T43 chain: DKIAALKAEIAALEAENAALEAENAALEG

[46] = target: T44, O13-AA; assay: two-hybrid library CCmax; details: mean of both orientations
T44 chain: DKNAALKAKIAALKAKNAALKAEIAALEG

[47] = target: T45, O14-AA; assay: two-hybrid library CCmax; details: mean of both orientations
T45 chain: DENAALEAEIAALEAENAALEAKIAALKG

interaction score [1]: 1.45 | interaction score [2]: 0.912 | interaction score [3]: -0.162 | interaction score [4]: 0.477 | interaction score [5]: 0.214 | interaction score [6]: -0.659 | interaction score [7]: -0.119 | interaction score [8]: 0.473 | interaction score [9]: -0.26 | interaction score [10]: 0.142 | interaction score [11]: -1.35 | interaction score [12]: 0.93 | interaction score [13]: 0.833 | interaction score [14]: -0.911 | interaction score [15]: -0.138 | interaction score [16]: -0.166 | interaction score [17]: 0.581 | interaction score [18]: -1.68 | interaction score [19]: 0.14
Binder: DKIQQLEQEIQELKQENQELEWKIQELKQ [4H2134-bN]

interaction score [20]: -1.32 | interaction score [21]: 0.405
Binder: DEIQELEKKNEELKRKIWELKKENQELER [4H491-bH]

interaction score [22]: -0.374 | interaction score [23]: 0.48 | interaction score [24]: 2.21 | interaction score [25]: 0.139 | interaction score [26]: 2.38 | interaction score [27]: -0.938 | interaction score [28]: 0.536 | interaction score [29]: 2.4 | interaction score [30]: 1.84 | interaction score [31]: 0.273 | interaction score [32]: 0.794 | interaction score [33]: 0.654 | interaction score [34]: 1.5 | interaction score [35]: 2.04 | interaction score [36]: 1.17 | interaction score [37]: 2 | interaction score [38]: -0.679 | interaction score [39]: 0.937 | interaction score [40]: 1.96 | interaction score [41]: 1.96 | interaction score [42]: -0.839 | interaction score [43]: 1.94 | interaction score [44]: 0.268 | interaction score [45]: -1.36 | interaction score [46]: 2.02 | interaction score [47]: -0.533
Binder: DEIAALEAENAALEAEIAALEAKIAALKG [4H134-AA]
